Conditions: Kitasatospora aureofaciens, pH 7, CD, MOPS 30 mM, whole UniProt chain shown; for denaturant m value / denaturant midpoint (higher = more stable) / unfolding free energy: 25 °C

B1: Guanyl-specific ribonuclease Sa wild type, P05798 (protein)
chain: DVSGTVCLSALPPEATDTLNLIASDGPFPYSQDGVVFQNRESVLPTQSYGYYHEYTVITPGARTRGTRRIITGEATQEDYYTGDHYATFSLIDQTC
- denaturant m value (GdnHCl): 2.43 kcal/mol/M
- denaturant midpoint (higher = more stable) (GdnHCl): 2.99 M
- unfolding free energy (GdnHCl): 7.3 kcal/mol
- denaturant m value (Urea): 0.96 kcal/mol/M
- denaturant midpoint (higher = more stable) (Urea): 6.06 M
- unfolding free energy (Urea): 5.8 kcal/mol
- Tm (Thermal): 49.3 °C
- heat capacity change of unfolding (Thermal): 1.52 kcal/mol/K
- unfolding enthalpy (van 't Hoff) (Thermal): 93 kcal/mol
